Target: HBV enveloped particles (HBsAg) released from cells transfected with the pCMV ayw HBV proviral construct (hepatitis B virus (ayw), UniProt P03138-1 1-389; P03138-2 1-281; P03138-3 1-226)
Experiment: cell-based or functional assay

HBV enveloped particles (HBsAg) released from cells transfected with the pCMV ayw HBV proviral construct, sequence (P03138 whole entry, chain 1 of 3): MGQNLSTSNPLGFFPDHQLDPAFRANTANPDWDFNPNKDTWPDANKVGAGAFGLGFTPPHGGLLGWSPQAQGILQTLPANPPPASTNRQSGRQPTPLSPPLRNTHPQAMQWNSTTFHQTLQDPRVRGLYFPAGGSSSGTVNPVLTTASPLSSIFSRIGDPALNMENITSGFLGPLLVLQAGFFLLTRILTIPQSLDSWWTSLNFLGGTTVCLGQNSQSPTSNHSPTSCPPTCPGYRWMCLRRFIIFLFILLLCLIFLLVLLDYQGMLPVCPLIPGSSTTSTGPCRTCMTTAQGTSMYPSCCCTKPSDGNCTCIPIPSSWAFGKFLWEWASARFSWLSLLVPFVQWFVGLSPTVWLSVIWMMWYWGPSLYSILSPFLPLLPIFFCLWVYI
HBV enveloped particles (HBsAg) released from cells transfected with the pCMV ayw HBV proviral construct, sequence (P03138 109-389, chain 2 of 3): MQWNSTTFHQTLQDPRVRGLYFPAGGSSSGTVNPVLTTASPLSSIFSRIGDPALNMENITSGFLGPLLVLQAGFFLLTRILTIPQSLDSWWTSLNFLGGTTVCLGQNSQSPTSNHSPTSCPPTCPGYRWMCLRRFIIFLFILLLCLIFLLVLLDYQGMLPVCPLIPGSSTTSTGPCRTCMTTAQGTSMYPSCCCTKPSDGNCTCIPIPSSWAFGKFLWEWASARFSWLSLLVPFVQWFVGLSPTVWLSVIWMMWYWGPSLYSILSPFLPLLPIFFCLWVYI
HBV enveloped particles (HBsAg) released from cells transfected with the pCMV ayw HBV proviral construct, sequence (P03138 164-389, chain 3 of 3): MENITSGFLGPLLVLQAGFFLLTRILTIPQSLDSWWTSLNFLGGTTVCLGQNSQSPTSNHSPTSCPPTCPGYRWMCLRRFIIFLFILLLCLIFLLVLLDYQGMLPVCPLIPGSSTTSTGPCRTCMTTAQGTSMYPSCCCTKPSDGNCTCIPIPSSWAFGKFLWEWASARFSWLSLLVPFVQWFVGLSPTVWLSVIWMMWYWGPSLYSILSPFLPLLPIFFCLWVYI

B1: BST-2 with an internal HA tag (BST-2 IHA), wild type (natural protein)
chain: MASTSYDYCRVPMEDGDKRCKLLLGIGILVLLIIVILGVPLIIFTIKANSEACRDGLRAVMECRNVTHLLQQELTEAQKGFQDVEAQAATCNHTVMALMASLDAEKAQGQKKVEELEGEITTLNHKLQDASAEVERLRRENQVLSVRIADKKYYPSSQDSS
BST-2-induced NF-κB signaling (pNF-κB-Luc reporter in 293T cells) in the presence of HBV expression: ~10 fold

Source: publication PMC4484258, “Identification of BST-2/tetherin-induced hepatitis B virus restriction and hepatocyte-specific BST-2 inactivation” (Scientific Reports, 2015)
